The experiment deals with chaperonin-containing TCP-1 (CCT), bovine (bovine) (UniProt Q32L40). Briefly: native gel or EMSA.

On to “Hsc70ΔC_(DnaK189–195) (Hsc70ΔC with V189GAERNV195 substituted with DnaK TGNRTI) (from UniProt P19120 1-554) (domain or fragment)”, for which the percent of the wild-type CCT binding came out at 6%.

Regarding “DnaK_(Hsc70-185–190) (DnaK with T185GNRTI190 exchanged by Hsc70 V189GAERNV195) (from UniProt P0A6Y8 1-638) (natural protein)”, the percent of the CCT binding of Hsc70 was found to be 64%.

The substance “Hsc70ΔC_(DnaK189–192) (Hsc70ΔC with V189GAE192 changed to DnaK T185GN187) (from UniProt P19120 1-554) (domain or fragment)” returned a percent of the wild-type CCT binding of 18%.
